Legend:
human GPR7 = molecular target: T1, human GPR7 (Homo sapiens, UniProt P48145); experiment: Aequorin-based functional assay, WTA11 cells expressing GPR7; type: cell-based; conditions: in words
T1 construct: expressed in transfected cells; host or cells: CHO-K1 clone WTA11 (mitochondrial apoaequorin + Galpha16)
T1 sequence (P48145 1-328): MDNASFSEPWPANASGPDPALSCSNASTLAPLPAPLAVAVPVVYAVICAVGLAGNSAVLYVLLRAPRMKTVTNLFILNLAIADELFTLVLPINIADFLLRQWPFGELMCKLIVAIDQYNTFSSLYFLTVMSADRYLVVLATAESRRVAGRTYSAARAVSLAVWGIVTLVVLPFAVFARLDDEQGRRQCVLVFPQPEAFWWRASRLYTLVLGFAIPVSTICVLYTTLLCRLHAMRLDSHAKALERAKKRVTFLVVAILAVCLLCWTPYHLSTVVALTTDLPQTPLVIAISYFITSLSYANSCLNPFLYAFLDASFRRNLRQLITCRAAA
Procedure: CHO—K1 cells (ATCC CRL-9618 (Bethesda, Md., USA)) were previously transfected with a plasmid encoding mitochondrial apoaequorin and Gα16. A clone obtained by limit dilution, called WTA11, was grown in Nutrient Mixture HAM's F12 medium supplemented with 10% fetal calf serum, 250 μg/ml zeocin, 100 units/ml penicillin and 100 μg/ml streptomycin. A bicistronic plasmid encoding the human GPR7 was transfected into WTA11 CHO—K1 cells, using Fugene 6 (Roche Diagnostics, Mannheim, Germany). Individual clones were selected two days after transfection with 400 μg/ml neomycin and GPR7-positive clones were confirmed by northern blotting, RT-PCR and sequencing.
Functional responses were analysed by recording the luminescence of aequorin following the addition of the ligand. In brief, cells were collected from plates with PBS containing 5 mM EDTA, pelleted, and resuspended at 10^7 cells/ml in DMEM-F12 medium and incubated with 5 μM coelenterainze H (Molecular Porbes) for 4 h at room temperature. Cells were then washed in DMEM-F12 medium and resuspended at a concentration of 2×10^6 cells/ml. Cells where then mixed with the ligand, and the light emission was recorded over 60 s using a Microlumat™ luminometer (Perkin Elmer). Results are expressed as relative light units (RLU) (FIG. 5).
(§1) In the experiments described in this section, the aequorin assay measured functional responses by recording the luminescence of aequorin in GPR7- and GPR8-expressing cells following addition of (potential) agonists, as previously described (Kotani, M. et al.). In brief, cells were collected from plates with PBS containing 5 mM EDTA, pelleted, resuspended at 5×10^6 cells/ml in DMEM-F12 medium containing 0.1% BSA, incubated with 5 μM coelenterazine H (Molecular Probes, Eugene, Oreg.) for 4 h at room temperature, and diluted in DMEM-F12 medium at a concentration of 5×10^5 cells/ml. Cells where then mixed with the ligands, and the light emission was recorded over 30 s using a Microlumat™ luminometer (Perkin Elmer, Norwalk, Conn.).

human GPR8 = molecular target: T2, human GPR8 (Homo sapiens, UniProt P48146); experiment: Aequorin-based functional assay, WTA11 cells expressing GPR8; type: cell-based; conditions: in words
T2 construct: expressed in transfected cells; host or cells: CHO-K1 clone WTA11 (apoaequorin + Galpha16)
T2 sequence (P48146 whole entry): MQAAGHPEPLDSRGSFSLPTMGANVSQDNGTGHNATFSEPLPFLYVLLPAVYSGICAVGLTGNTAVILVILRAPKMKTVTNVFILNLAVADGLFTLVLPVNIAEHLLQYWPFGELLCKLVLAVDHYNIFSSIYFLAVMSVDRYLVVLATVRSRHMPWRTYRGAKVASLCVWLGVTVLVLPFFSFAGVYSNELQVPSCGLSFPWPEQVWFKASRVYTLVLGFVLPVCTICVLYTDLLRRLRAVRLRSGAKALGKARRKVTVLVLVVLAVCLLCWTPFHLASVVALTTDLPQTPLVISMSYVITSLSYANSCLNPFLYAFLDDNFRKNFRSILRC
Procedure: as §1

| activity in aequorin-based functional assay on GPR7 (human GPR7) | activity in aequorin-based functional assay on GPR8 (human GPR8) | Substance |
| --- | --- | --- |
| inactive | inactive | SPYA (PYAR; UniProt Q8NG41 51-54, looked up, fragment) [pro-L7 [51-54], human peptide derived from the L7 precursor] |
| inactive | inactive | SPYLW (UniProt Q8N729 58-62, looked up, fragment) [pro-L8 [58-62], human peptide derived from the L8 precursor] |
| active | active | WYKPAAGHSSYSVGRAAGLL [pro-L7 [25-44], human peptide derived from the L7 precursor] |

— patent US20030232756A1, “Ligands for G protein coupled receptor GPR7 and GPR8 and uses thereof” (Euroscreen, S.A., priority 2002, published 2003)
